Experimental findings from the nanobody polyreactivity screen of Harvey et al. (2022) are described below.

The data set is described as follows: yeast display, Sf9 membrane polyspecificity reagent, FACS + sequencing; frameworks hold sequencing errors. Summed up: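 Genes from sorted yeast were amplified by colony PCR, read by MiSeq 2 × 250 sequencing and filtered on CDR length. These cells carried a synthetic nanobody library in Saccharomyces cerevisiae BJ5465 and were sorted by FACS into low and high (top ~1%) gates on anti-HA and streptavidin fluorescence. Polyreactivity is labelled according to the gate of origin.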
For “QVQLVESGGGLVQAGGSLRLSCAASGFIFSYNAMGWYRQAPGKERELVAAISSIGSGTYYADSVKGRFTISRDNAKNTVYLQMNSLKPEDTAVYYCAKYLRPRIGSRYYYWGQGTQVTVSS”, the “polyreactivity (PSR sort gate)” value is on record as “high polyreactivity”. Consider “QVQLVESGGGLVQAGGSLRLSCAASGFIFSYNAMGWYRQAPGKERELVASISRRSGITYYADSVKGRFTISRDNAKNTVYLQMNSLKPEDTAVYYCAVTQNSKSTKIRPDQGDYWGLGTQVTVSS”, for which the “polyreactivity (PSR sort gate)” value was “high polyreactivity”. With “QVQLVESGGGLVQAGGSLRLSCAASGFIFSYYAMGWYRQAPGKERELVAAISRNGGRTYYADSVKGRFTISRDNAKNTVYLQMNSLIPEDTAVYYCAATTYRTSSYIRYGSPKHDDYWGQGTHVTVSS”, the “polyreactivity (PSR sort gate)” value was “high polyreactivity”.

Regarding “QVQLVESGGGLVQAGGSLRLSCAASGFIFSYYAMGWYRQAPGKERELVAAITWDGGSTYYADSVKGRFTISRDNAKNTVYLQMNSLKPEDTAVYYCNAYYYYRRPLEGGYWGQGTQVTVSS”, the “polyreactivity (PSR sort gate)” value is “low polyreactivity”. As for “QVQLVESGGGLVQAGGSLRLSCAASGFIFSYYAMGWYRQAPGKERELVAAITWSGGGTYYADSVKGRFTISRDNAKNTVYLQMNSLKPEDTAVYYCAAERVYPDGEYWGQGTQVTVSS”, the entry is “high polyreactivity”; as for “QVQLVESGGGLVQAGGSLRLSCAASGFIFSYYAMGWYRQAPGKERELVADITSGGSTNYADSVKGRFTISRDNAKNTVYLQMNSLKPEDTAVYYCAATGLPGYYAYDYWGQGTQVTVTS”, “low polyreactivity”. Regarding “QVQLVESGGGLVQAGGSLRLSCAASGFIFSYYAMGWYRQAPGKERELVATINFSGGRTYYADSVKGRFTISRDNEKNTVYLQMNSLKPEDTAVYYCAASFYSYTSRYPDYYYWGQGTQVTVSS”, the “polyreactivity (PSR sort gate)” value is reported as “high polyreactivity”. As for “QVQLVESGGGLVQAGGSLRLSCAASGFIFSYYTMGWYRQAPGKERELVAAISRNGGSTYYADSVKGRFTISRDNAKNTVYLQMNSLKPEDTAVYYCAKRVFNYQRYDYWGQGTQVSVSS”, the entry is “high polyreactivity”; as for “QVQLVESGGGLVQAGGSLRLSCAASGFIFSYYVMGWYREAPGKERELVAAISWNGGSTFYADSVKGRFTISRDNAKNSVYLQMNSLKPEDTAVYYCAAYPRFYGGKYGEYGYWGQGTQVTVSS”, “high polyreactivity”; as for “QVQLVESGGGLVQAGGSLRLSCAASGFIFSYYVMGWYRQAPGKERELVAAINESGGRTYYADSVKGRFTISRDNAKNTVYLQMNSLKQEDTAVYYCAASVLNKIQGYRDYYWGQGTKVTVSS”, “low polyreactivity”. Consider “QVQLVESGGGLVQAGGSLRLSCAASGFIFTANAMGWYRQAPGKERELVAAINWSDGGTYYADSVKGRFTISRDNAKNTVYLQMNSLKPEDTAVYYCNAQWAWTYYYWGQGTQVTVSS”, for which the “polyreactivity (PSR sort gate)” value was “low polyreactivity”.

Regarding “QVQLVESGGGLVQAGGSLRLSCAASGFIFTDNAMGWYRQAPGKERELVAAISKNGGSTYYADSVKGRFTISRDNAKNTVYLQMNSLKQEDTAVYYCNTRRKNFVKSSQVEYWGQGTQVTVSS”, the “polyreactivity (PSR sort gate)” value is recorded as “high polyreactivity”.

Regarding “QVQLVESGGGLVQAGGSLRLSCAASGFIFTDYAMGWYRQATGQEREFVAAIDWSGGNTYYADSVKGRFTISRDNAKNTVYLQLNSLKPEDTAVFFCSASGSAREYDYWGQGTQVTVSS”, the “polyreactivity (PSR sort gate)” value is reported as “low polyreactivity”. The entry for “QVQLVESGGGLVQAGGSLRLSCAASGFIFTGYAMGWYRQAPGKERELVAAISSSGGRTYYADSVKGRFTISRDNAKNTVYLQMNSLKPEDTAVYYCAAYYITFIGRGYGYWGQGTQVTVSS” is “high polyreactivity”; for “QVQLVESGGGLVQAGGSLRLSCAASGFIFTIYALGWYRQAPGKERELVAAIDSSGTTYYADSVKGRFTISRDNAKNTVYLQMNSLKPEDTAVYYCNTDIYVQYGWGQGTQVTVSS” it is “low polyreactivity”. As for “QVQLVESGGGLVQAGGSLRLSCAASGFIFTIYAMGWYRQAPGKERELVAAITWNGGRTYYADSVKGRFTISRDNAKNTVDLQMNSLKPEDTAVYYCAARYGRAYDYWGQGSQVTVSS”, the entry is “high polyreactivity”; as for “QVQLVESGGGLVQAGGSLRLSCAASGFIFTKYSMGWYRQAPGKERELVAAIRGSGGSTYYADSVKGRFTISRDIAKNSVYLQMNSLKPEDTAVYYCAAERSLGYDYWGQGTQVTVSS”, “high polyreactivity”; as for “QVQLVESGGGLVQAGGSLRLSCAASGFIFTPNAMGWYRQAPGKERELVATISWRGTGTYYADSVKGRFTISRDTAKNTVYLQMNSLNPVDTAVYYCAVRFYSFHYYRIYTYSVTYDYWGQGTQVTVSS”, “high polyreactivity”. The entry for “QVQLVESGGGLVQAGGSLRLSCAASGFIFTPYAMGWYRQAPGKERELVAAITWRGARTYYADSVKGRFTISRDNAKNTVYLQMNSLKPEDTAVYYCATTFTGYNKEFGYWGQGTQVTVSS” is “high polyreactivity”; for “QVQLVESGGGLVQAGGSLRLSCAASGFIFTQNAMGWYRQAPGKERELVAVIRWNGGSTYYADSVKGRITISRDNAKNTVYLQMNSLKREDTAVYYCAAEFLWIVDYWGQGTQVTVSS” it is “low polyreactivity”; for “QVQLVESGGGLVQAGGSLRLSCAASGFIFTQNGMGWYRQAPGKERELVAAISWSAGGTYYADSVKGRFTISRDNAKNTVYLQMNSLKPEDTAVYYCNARVYNVFREFNSWGQGTQVTVSS” it is “low polyreactivity”. Consider “QVQLVESGGGLVQAGGSLRLSCAASGFIFTQYAMGWYRQSPGKERELVAGITSSGNTYYADSVKGRFTISRDNAKNTVYLQMNSLKPEDTAVYYCAARSYVRRFDGGYWGQGTQVTVSS”, for which the “polyreactivity (PSR sort gate)” value is “high polyreactivity”.

“QVQLVESGGGLVQAGGSLRLSCAASGFIFTRNVMGWYRQAPGKEMELVASISKSSGSTYYADSVKGRFTISRDNAKNTVYLQMNSLNPEDTAVYYCATYAKQLSPYYYWGQGIQVTVSS”: the “polyreactivity (PSR sort gate)” value is on record as “high polyreactivity”. As for “QVQLVESGGGLVQAGGSLRLSCAASGFIFTRYAMGWYRQAPGKEREFVARIDSSGGSTYYADSVKGRFTISRDNAKNTVYLQMNSLKPEDTAVYYCAAVGYRFGSYYWGQGTKVTVSS”, the entry is “high polyreactivity”. As for “QVQLVESGGGLVQAGGSLRLSCAASGFIFTRYAMGWYRQAPGKERELVAVITSSGGTYYADSVKGRFTISRDNAKNSVYLQMNSLKPEDTAVYYCNADFYRVAYLRRYSHFDYWGQGTQVTVSS”, the entry is “high polyreactivity”. The entry for “QVQLVESGGGLVQAGGSLRLSCAASGFIFTSYAMAWYRQAPGKERELVAAIDYSGGSTYYADSVKGRFTISRDNAKNTVYLQINSLKPEDTAVYYCSAGEGLWPGSQTYDYWGQATQVTVSS” is “low polyreactivity”.

Turning to “QVQLVESGGGLVQAGGSLRLSCAASGFIFTSYAMGWYRQAPGKERELVAAIDYSGGSTYYADSVKGRFTISRDNAKNTVYLQMNSLKPEDTAVYYCAAGDGLWPGSQTYDYWGQGTQVTVSS”, the “polyreactivity (PSR sort gate)” value is “low polyreactivity”.

“QVQLVESGGGLVQAGGSLRLSCAASGFIFTSYAMGWYRQAPGKERELVAAITRSGGRTYYADSVKGRFTISRDNAKNTVYLQMNSLKPEDTAVYYCAAVTFYQSPARGYWGQGTQVTVSS”: the “polyreactivity (PSR sort gate)” value was “high polyreactivity”.

Take “QVQLVESGGGLVQAGGSLRLSCAASGFIFTSYAMGWYRQAPGKERELVATISSSGGSTTYADSVKGRFTISRDNAKNTVYLQMNSLKPEDTAVYYCAAAVYVVRYVSLYRRYYWGQGTQVTVSS”: the “polyreactivity (PSR sort gate)” value was “high polyreactivity”. As for “QVQLVESGGGLVQAGGSLRLSCAASGFIFTYYAMGWYRPAPGKERELVATISSGGGSTYYADSVKGRFTISRDNAKNTVYLQMNSLKPEDTAVYYCAASRRITGIRYLNRYEYWGQGTQVTVSS”, the entry is “high polyreactivity”; as for “QVQLVESGGGLVQAGGSLRLSCAASGFIFTYYAMGWYRQAPGKERELVARITSGGASTYYADSVKGRFTISRDNAKNTVYLQMNSLKPEDTAVYYCAAQARGWGYDYWGQGTQVTVSS”, “low polyreactivity”; as for “QVQLVESGGGLVQAGGSLRLSCAASGFIFVINAMGWYRQAPGKERELVAGISSGGRTNYADSVKGRFTISRDNAKNTVYLEMKSLKPEDTAVYYCAAAPTYKWRRKNYDYWGQGTQVTVSS”, “high polyreactivity”.

Take “QVQLVESGGGLVQAGGSLRLSCAASGFIFVKYAMGWYRQAPGKEREFVAAISQSGGNTYYADSVKGRFTISRDNAKNTVYLQMNSLKPEDTAVYYCNAKSYTRRSYYTPTVPGDYWGQGTQVTVSS”: the “polyreactivity (PSR sort gate)” value was “low polyreactivity”. The entry for “QVQLVESGGGLVQAGGSLRLSCAASGFIFVLNAMGWYRQAPGKERELVAAIRWSGGSTYYADSVKGRFTISRDNAKNTVYLQMNSLKPEDTAVYYCAARLWLKVQYLRFFGYDYWGQGTQVTVSS” is “low polyreactivity”; for “QVQLVESGGGLVQAGGSLRLSCAASGFIFVNYMGWYRQAPGKERELVAAISRGGSTNYADSVKGRFTISRDNAKNTVYLQMNSLKPEDTAVYYCAAETWYSGYTYDYWGQGTQVTVSS” it is “low polyreactivity”; for “QVQLVESGGGLVQAGGSLRLSCAASGFIFVPNAMGWYRQAPGKERELVAAIRWSDGTTYYADSVKGRFTISRDNAKNNVYLQMNSLKPEDTAVYYCATDHDPRYDYWGQGTQVTVSS” it is “high polyreactivity”.

With “QVQLVESGGGLVQAGGSLRLSCAASGFIFVPNTMGWYRQAPGKERELVAAITSVGSTNYADSVKGRFTISRDNAKNTVYLQMNSLKPEDTAVYYCPATLYYQYGGDYWGQGTQVTVSS”, the “polyreactivity (PSR sort gate)” value is listed as “low polyreactivity”. As for “QVQLVESGGGLVQAGGSLRLSCAASGFIFVPYAMGWYRQAPGKERELVAAISSGGSTYYADSVKGRFTISRDNAKNTVYLQMNSLKPEDTAVYYCNKRYYLYQYRYDYWGQGTQVTVSS”, the entry is “low polyreactivity”; as for “QVQLVESGGGLVQAGGSLRLSCAASGFIFVPYAMGWYRQAPGKERELVASITYTGGSTYYADSVKGRFTISRDNAKNTVYLQMNSLKPEDTAVYYCASRYQYWRLHMDYWGQGTPVTVSS”, “low polyreactivity”. The entry for “QVQLVESGGGLVQAGGSLRLSCAASGFIFVRYAMGWYRQAPGKEREFVAAISGGAGSTYYADSVKGRFTISRDNAKNTVYLQMNSLKPEDTAVYYCNRVRSLRYGYWGQGTQVTVSS” is “high polyreactivity”. Regarding “QVQLVESGGGLVQAGGSLRLSCAASGFIFVSYAMGWYRQAPGKERELVAAIDRIGGITYYADSVKGRFTIARDIAKNTVYLQMNSLKPEDTAVYYCAAAARYATVRVGREYYWGQGTQVTVSS”, the “polyreactivity (PSR sort gate)” value was “low polyreactivity”.
